From patent US20220235118A1 (IMMUNOME, published 2022) come the findings set out here.

Experiment [1] addresses T1, SARS-CoV-2 Spike RBD A352S (SARS-CoV-2, UniProt P0DTC2 319-541).
T1 construct: domain: RBD
The experiment is described as follows: HTRF, soluble RBD construct. A general note: In TR-FRET formats the signal depends on donor and acceptor labels being close together.

Experiment [2] concerns the target T2, SARS-CoV-2 Spike RBD A475V (SARS-CoV-2, UniProt P0DTC2 319-541).
T2 construct: domain: RBD
The experiment is described as follows: HTRF, soluble RBD construct.

Experiment [3] has as its target T3, SARS-CoV-2 Spike RBD Y453F (SARS-CoV-2, UniProt P0DTC2 319-541).
T3 construct: domain: RBD
Nature of the experiment: HTRF, soluble RBD construct.

The target of experiment [4] is T4, SARS-CoV-2 Spike RBD K417N (SARS-CoV-2, UniProt P0DTC2 319-541).
T4 construct: domain: RBD
The experiment is described as follows: HTRF, soluble RBD construct.

The target in experiment [5] is T5, SARS-CoV-2 Spike RBD N439K (SARS-CoV-2, UniProt P0DTC2 319-541).
T5 construct: domain: RBD
Nature of the experiment: HTRF, soluble RBD construct.

The target of experiment [6] is T6, SARS-CoV-2 Spike RBD N501Y (SARS-CoV-2, UniProt P0DTC2 319-541).
T6 construct: domain: RBD
The experiment is described as follows: HTRF, soluble RBD construct.

Experiment [7] has as its target T7, SARS-CoV-2 Spike RBD E406Q (SARS-CoV-2, UniProt P0DTC2 319-541).
T7 construct: domain: RBD
The experiment is described as follows: HTRF, soluble RBD construct.

In experiment [8] the target is T8, SARS-CoV-2 Spike S1 domain K417N, E484K, N501Y, D614G (SARS-CoV-2, UniProt P0DTC2 16-685).
T8 construct: domain: S1; also called S. African (K417N, E484K, N501Y, D614G); B.1.351
The experiment is described as follows: HTRF, soluble S1 construct.

The target in experiment [9] is T9, SARS-CoV-2 Spike S1 domain A222S, D614G (SARS-CoV-2, UniProt P0DTC2 16-685).
T9 construct: domain: S1; also called Spanish (A222S, D614G)
Nature of the experiment: HTRF, soluble S1 construct.

The target in experiment [10] is T10, SARS-CoV-2 Spike S1 domain ΔHV69/70, Y453F, D614G (SARS-CoV-2, UniProt P0DTC2 16-685).
T10 construct: domain: S1; also called Denmark (ΔHV69/70, Y453F, D614G); DHV69/70, Y453F, D614G
Nature of the experiment: HTRF, soluble S1 construct.

Experiment [11] concerns the target T11, SARS-CoV-2 Spike S1 domain ΔHV69/70, ΔY144, N501Y, A570D, D614G, P681H (SARS-CoV-2, UniProt P0DTC2 16-685).
T11 construct: domain: S1; also called U.K. (B.1.1.7); DHV69/70, DY144, N501Y, A570D, D614G, P681H
Nature of the experiment: HTRF, soluble S1 construct.

Experiment [12] deals with T12, SARS-CoV-2 Spike S1 domain D614G (SARS-CoV-2, UniProt P0DTC2 16-685).
T12 construct: domain: S1
The experiment is described as follows: HTRF, soluble S1 construct.

B1: PR194_00364_b (antibody, V domains shown)
VH: EVQLVESGGGLVKPGGSLRLSCSASGFTFTTYTMNWVRQAPGKGLEWVSSISSTGLSIYYADSVKGRFTISRDNAKNSLYLQMNSLRAEDTAVYYCARDPSPTTIYYYYYMDVWGKGTTVTVSS
VL: QSALTQPASVSGSPGQSITISCTGTSSDVGTYNLVSWYQHYPGKAPKLIIYEVSKRPSGVSDRFSGSKSGNTASLTISGLQAEDEADYYCCSYAGSTTGYVVFGGGTKLTVL
In the case of B1, the fold over background in experiment [1] was 0.917 fold over background.

B2: PR196_00413_a (antibody, V domains shown)
VH: QVQLVQSGAEVKKPGSSVKVSCKASGGTFSSYAITWVRQAPGQGLEWMGGIIPIFGTANYAQKFQGRVTITADESTSTAYMELSSLRSEDTAVYYCASDYGDSPLGYWGQGTLVTVSS
VL: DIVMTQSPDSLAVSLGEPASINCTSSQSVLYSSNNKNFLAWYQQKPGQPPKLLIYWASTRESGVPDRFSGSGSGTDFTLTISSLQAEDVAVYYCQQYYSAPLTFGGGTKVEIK
On to B2, for which the fold over background in experiment [2] stood at 1.01 fold over background; in [3], 1.06 fold over background; in experiment [4] it was 1.06 fold over background; in experiment [1] it was 1.07 fold over background; in experiment [5], 1.07 fold over background; in experiment [6], 1.08 fold over background. The fold over background in experiment [7] is 1.02 fold over background; in [8] it was 9 fold over background; in experiment [9], 8.74 fold over background; in experiment [10], 9.68 fold over background; in experiment [11] it was 6.39 fold over background; in experiment [12], 9.92 fold over background.

B3: PR201_00151 (antibody, V domains shown)
VH: RVTLRESGPALVKPTQTLTLTCTFSGFSLNTSGMCVSWIRQPPGKALEWLARIDWDDDKYYSTSLETRLTISKDTSKNQVVLTMTNLDPVDTGTYYCARISIQSRGGGADYWGQGTLVTVSS
VL: DIQMTQSPSSLSASVGDRVTITCRASQSISSYLHWYQQKSGKAPKLLIFVASTLQSGVPSRFSGSGSGTDFTLTISSLQPEDSAAYYCQQSYSPPWTFGQGTKVEIK
As for B3, the fold over background in experiment [2] worked out at 5.7 fold over background; in [3], 5.48 fold over background; in experiment [4], 1.09 fold over background; in experiment [1], 7.06 fold over background; in [5] it was 6.03 fold over background; in experiment [6], 6.16 fold over background. Besides, the fold over background in experiment [7] amounted to 8.3 fold over background; in [8] it was 1.05 fold over background; in experiment [9], 7.29 fold over background; in experiment [10] it was 6.53 fold over background; in [11], 4.22 fold over background; in experiment [12], 7.25 fold over background.

B4: PR194_00453 (antibody, V domains shown)
VH: QLQLQESGPGLVKPSETLSLTCTVSGGSISSSSSYWGWFRQPPGKGLGWIRSIYYSGSTYYNPSLKSRVTMSVDTSKNQFSLKLSSVTAADTAVYYCARAKFSVWDNYRYPFDYWGQGILVTVSS
VL: not shown
Turning to B4, the fold over background came out at 1.06 fold over background in experiment [2]; 0.987 fold over background in experiment [3]; 1.1 fold over background in experiment [4]; 1.11 fold over background in experiment [1]; 1.05 fold over background in [5]; 1.03 fold over background in experiment [6]. For the same molecule, the fold over background in experiment [7] worked out at 0.99 fold over background; in experiment [8], 9.57 fold over background; in experiment [9] it was 9.21 fold over background; in experiment [10], 9.45 fold over background; in [11], 9.06 fold over background; in experiment [12] it was 9.55 fold over background.

B5: PR199_00255 (antibody, V domains shown)
VH: QVQLVESGGGVVQPGRSLRLSCAASGFTFSTYGMHWVRQAPGKGLEWVAVIWYNGINKHYADSVKGRFTISRDNSKNTLYLQMSSLRVEDTAVYYCARDWGTLTTLFDFWGQGTLVTVSS
VL: DIQMTQSPSSLSASVGERATITCRASQSISSHLNWYQQKPGKAPKFLIYGASSLQSGVPSRFSGSGSGTDFTLTISSLQPEDFATYYCQQSYSTPPWTFGQGTKVEIK
notes: also called IMM20279; PR190_00255
Take B5: the fold over background in experiment [2] is 7.64 fold over background; in experiment [4], 7.29 fold over background; in experiment [1], 8.26 fold over background; in experiment [5], 6.09 fold over background; in experiment [6] it was 6.15 fold over background; in experiment [7] it was 10.9 fold over background. In addition, the fold over background in experiment [8] stood at 9.48 fold over background; in experiment [9], 9.3 fold over background; in experiment [10], 9.63 fold over background; in [11] it was 7.29 fold over background; in experiment [12], 11.2 fold over background.

B6: PR197_00647 (antibody, V domains shown)
VH: QVQLVESGGGVVQPGRSLRLSCAASGFTFSSYAMHWVRQAPGKGLQWVTLISYDGGDKYYADSVRGRFTISRDNSKNTLYLQMNSLRTEDTAVYYCARDRPQTGDWFPPIPTGVLDVWGQGTTVTVSS
VL: DIQMTQSPSSLSASVGDRVTITCRASQGISNYLAWFQQKPGKAPKSLIYAASSLQSGVPSRFSGSESGTDFTLTISSLQPEDFATYYCQQYHSYPITFGQGTRLEIK
For B6, the fold over background was found to be 0.999 fold over background in experiment [2]; 1.11 fold over background in experiment [3]; 1.03 fold over background in experiment [4]; 1.04 fold over background in [1]; 1.04 fold over background in experiment [5]; 1.06 fold over background in experiment [6]. In addition, the fold over background came out at 1.03 fold over background in experiment [7]; 7.72 fold over background in experiment [8]; 9.54 fold over background in [9]; 1.07 fold over background in experiment [10]; 1.1 fold over background in experiment [11]; 8.3 fold over background in experiment [12].

B7: PR194_00068 (antibody, V domains shown)
VH: EVQLLESGGGLVQPGGSLRLSCSASGFTFTNYAMSWVRQAPGKGLEWVSTISGSGGSTYYADSVKGRFTISRDNSKSTLFLQMNSLRAEDTAIYYCANSGPTGDLDYWGQGTLVTVSS
VL: SYELTQPPSVSVSPGQTTLSLTCSGDKLGNKYVCWYQQKPGQSPVLVIYQDTKRPSGIPERVSGSNSGDTATLTISGTQAMDEADYYCQAWDSSTAVFGGGTKLTVL
Take B7: the fold over background in experiment [5] stood at 1.06 fold over background.

B8: PR194_00292 (antibody, V domains shown)
VH: QVQLQQWGAGLLKPSETLSLTCAVYGGSLSGYYWSWIRQPPGKGLEWIGEINHSGSTNHNPSLKSRVSISVDTSKNQFSLKLSSVTAADTAVYYCARAWKYSSSWYSGGIYYGMDVWGQGTTVTVSS
VL: QSALTQPASVSGSPGQSITISCSGTSSDVGSYNLVSWYQQHPGKAPKLMIYEGTKRPSGVSNRFSSSKSGNTASLTISGLQAEDEADYYCCSYAGFSTWVFGGGTKLTVL
Regarding B8, the fold over background in experiment [2] came to 1.02 fold over background; in [3], 0.974 fold over background; in [4], 1.03 fold over background; in experiment [1], 0.94 fold over background; in [5], 1.06 fold over background; in experiment [6], 0.996 fold over background. Moreover, the fold over background in experiment [7] was determined as 0.967 fold over background; in experiment [8], 2.26 fold over background; in [9], 1.02 fold over background; in experiment [10], 2.59 fold over background; in experiment [11], 2.37 fold over background; in [12], 1.06 fold over background.
